According to patent US11674950B2, “Methods determining and treating cellular resistance to ADP-rtbosylating toxin” (priority 2017, dated 2023):

What was measured:
[1] = test system: DPH1 locus; assay: Bisulfite pyrosequencing of DPH1 locus CpG sites; assay type: cell-based, human; details: azacitidine 300 nM, 2 days on/2 days off over 2 weeks; resistant cells
Method: DPH1 expression is known to be regulated by DNA methylation and sensitivity to Pseudomonas exotoxin A was previously shown to be modulated by CpG methylation in the DPH1 locus. To test whether loss of DPH1 is mediated by DNA methylation, bisulfite pyrosequencing of the DPH1 locus in CpG islands (30 individual CpG sites) was performed by EpigenDx analysis (available on the World Wide Web at epigendx.com/d/service/pyrosequencing/) and the % methylated cytosine at each CpG site was quantitated. This analysis was performed in THP1 parental and 2 SL-401 resistant subclones, and CAL1 parental and 2 SL-401 resistant subclones. Data plotted in FIG. 12 are from THP1 cells, and are representative of CAL1. […] Given this finding, it was believed that 5-azacitidine, a DNA methyltransferase inhibitor or “DNA hypomethylating agent” can reverse the aberrant DPH1 hypermethylation and restore DPH1 expression. The parental and resistant cells were also treated with non-cytotoxic, low doses of azacitidine, so called “epigenetic dosing” (300 nM, 2 days on/2 days off) over 2 weeks to determine if the hypermethylation was reversible by DNA methyltransferase inhibition.

[2] = test system: BPDCN patient-derived xenografts; assay type: in vivo, mouse; details: for time to progression of peripheral blood leukemia burden: two cycles
[3] = test system: eEF2; assay: In vitro ADP-ribosylation assay in cell lysates with biotin-NAD+; assay type: biochemical, human
Method: A biochemical assay was next performed to test the ability of tagraxofusp to catalyze ADP-ribosylation in cellular lysates in the presence of exogenous biotin-tagged […] (NAD) as a source of ADP-ribose.
To determine the biochemical mechanism of SL-401 resistance and restoration of sensitivity upon non-cytotoxic treatment with azacitidine, an in vitro ADP-ribosylation assay was developed to perform lysates harvested from human leukemia cells. Briefly, 50 μg of cell lysates were harvested and mixed with 5 uM NAD+-Biotin (R&D Systems; 4670-500-01), in the presence or absence of 100 ng of SL-401 (or DT) in 35 uL of reaction buffer containing 20 mM Tris-HCl pH 7.4, 1 mM EDTA, and 50 mM DTT. The mixture is incubated for 15 minutes at room temperature and then the reaction is halted by boiling in SDS loading buffer. An SDS polyacrylamide gel is run and proteins are transferred to a PVDF membrane as in a Western blot. Protein levels are determined by traditional western blot. ADP-ribosylation of target proteins is detected by streptavidin-HRP (Abcam ab7403). […] Top blot is ADP-ribose, presumably on eEF2 (band is at same position as eEF2 protein detected by antibody); next, are levels of eEF2, DPH1, and beta-actin protein.

[4] = test system: CAL1 and THP1 cells; assay: Short-term cytotoxicity of azacitidine in parental and SL-401 resistant cells; assay type: cell-based, human
Method: Next, it was tested if azacitidine cooperated with tagraxofusp in AML and BPDCN cells. First, given that azacitidine acts as a cytotoxic chemotherapy at higher doses, experiments were performed to determine whether tagraxofusp-resistant cells were more sensitive to short-term treatment, similar to what was described above (FIGS. 6-8).

[5] = test system: DPH1; assay: Quantitative RT-PCR and Western blot for DPH1; assay type: cell-based, human
[6] = test system: CAL1, SHI1, and THP1 parental and tagraxofusp-resistant cells; assay: MTT viability after conventional chemotherapy (cytarabine, vincristine); assay type: cell-based, human; details: SL-401 resistant vs parental CAL1, SHI1, THP1
Method: CAL1, SHI1, and THP1 parental and tagraxofusp-resistant cells were tested in MTT viability assays after exposure to increasing doses of cytarabine (AraC) or vincristine (VCR).

[7] = test system: mouse models of human leukemia; details: in vivo; cited from earlier work
[8] = test system: IL3R (e.g., CD123) positive AML cell lines and primary leukemia cells; details: cited from earlier work
[9] = test system: THP1 human AML cells; assay: Single cell flow cytometric ADP-ribosylation assay; assay type: cell-based; details: resistant vs parental THP1
Method: THP1 human AML cells are shown that are parental SL-401 sensitive or SL-401 resistant.
For example, in another embodiment, a flow ADP ribosylation assay may be used to measure the functional activity of the entire diphthamide synthesis pathway (FIG. 20). […] The cells were stained with antibodies (e.g., CD45-APC, CD123-PE) at concentration of 1:100, incubated for 30 min at 4° C., and then washed with FACS buffer 5 minutes. The cells were fixed with 3% paraformaldehyde (PFA), incubated for 20 min at RT, and washed with PBS for 5 minutes. The cells were permeabilized with Saponin (1:10 in H2O, BD Biosciences-“Perm/Wash” solution) for 20 min at 4° C., washed with PBS for 5 minutes, and applied with endogenous Streptavidin block (BD Biosciences) for 20 min at RT. The cells were then washed with PBS for 5 minutes and applied with endogenous Biotin block (BD Biosciences) for 20 min at RT. The cells were then washed with PBS for 5 minutes and applied with protein block for 30 min at RT. The cells were washed twice with FACS buffer. Each wash was for 5 minutes. SL-401/biotin solution was added to the samples and the samples was incubated for 30 min at RT. […] The cells were washed 5 minutes in FACS buffer, resuspended in 300 μl FACS buffer and level of the ADP was detected with the flow assay.

[10] = rodents and monkeys; cited from earlier work
[11] = test system: THP1 human AML cells; assay: In situ histochemical ADP-ribosylation assay; assay type: cell-based; details: resistant vs parental THP1
[12] = test system: parental or tagraxofusp-resistant CAL1 cells; assay: Confocal microscopy of internalization of fluorescently tagged SL-401; assay type: cell-based, human; details: 30-60 minutes after exposure, resistant vs parental cells
[13] = 14 days from initiation of treatment, vs vehicle

Molecule: Nc1ncn([C@@H]2O[C@H](CO)[C@@H](O)[C@H]2O)c(=O)n1 [azacitidine, 5-azacytidine]
- DPH1 CpG DNA methylation [1]: reduction in the DPH1 CpG DNA hypermethylation
- time to progression of peripheral blood leukemia burden ([2]; four-arm study): prolonged the time to progression of peripheral blood leukemia burden
- tagraxofusp-mediated ADP ribosylation after azacitidine ([3]; long-term azacitidine-treated resistant THP1 cells): complete restoration of tagraxofusp-mediated ADP ribosylation activity
- azacitidine dose response, resistant vs parental ([4]; CAL1 parental and 3 SL-401 resistant subclones): increased sensitivity in resistant cells
- azacitidine cytotoxicity, resistant vs parental ([4]; THP1, short-term (72 hour), cytotoxic doses): more sensitive to cytotoxic doses of azacitidine than parental cells
- DPH1 protein levels after azacitidine ([5]; Western blot, resistant THP1 clones): partially or fully restored
- DPH1 mRNA expression ([5]; azacitidine 300 nM, 2 days on/2 days off over 2 weeks, quantitative RT-PCR): partially restored mRNA expression

Molecule: Nc1ccn([C@@H]2O[C@H](CO)[C@@H](O)[C@@H]2O)c(=O)n1 [cytarabine]
- sensitivity of SL-401 resistant cells to chemotherapy [6]: more sensitive to chemotherapy compared to the parental cells

Molecule: CC[C@]1(O)C[C@H]2CN(CCc3c([nH]c4ccccc34)[C@@](C(=O)OC)(c3cc4c(cc3OC)N(C=O)[C@H]3[C@@](O)(C(=O)OC)[C@H](OC(C)=O)[C@]5(CC)C=CCN6CC[C@]43[C@@H]65)C2)C1 [vincristine]
- sensitivity of SL-401 resistant cells to chemotherapy [6]: more sensitive to chemotherapy compared to the parental cells

B1: tagraxofusp (protein)
chain: MGADDVVDSSKSFVMENFSSYHGTKPGYVDSIQKGIQKPKSGTQGNYDDDWKGFYSTDNKYDAAGYSVDNENPLSGKAGGVVKVTYPGLTKVLALKVDNAETIKKELGLSLTEPLMEQVGTEEFIKRFGDGASRVVLSLPFAEGSSSVEYINNWEQAKALSVELEINFETRGKRGQDAMYEYMAQACAGNRVRRSVGSSLSCINLDWDVIRDKTKTKIESLKEHGPIKNKVISESPNKTVSEEKAKQYLEEFHQTALEHPELSELKTVTGTNPVFAGANYAAWAVNVAQVIDSETADNLEKTTAALSILPGIGSVMGIADGAVHHNTEEIVAQSIALSSLMVAQAIPLVGELVDIGFAAYNFVESIINLFQVVHNSYNRPAYSPGHKTRPHMAPMTQTTSLKTSWVNCSNMIDEIITHLKQPPLPLLDFNNLNGEDQDILMENNLRRPNLEAFNRAVKSLQNASAIESILKNLLPCLPLATAAPTRHPIHIKDGDWNEFRRKLTFYLKTLENAQAQQTTLSLAW
- spleen size [2, 13]: reduction in splenomegaly
- splenic infiltration [2, 13]: decreased splenic infiltration of human BPDCN cells
- mice remaining at 200 days ([2]; four-arm study, n=10 mice per arm): one
- progression-free survival ([2]; one cycle, daily for 5 days, three PDXs combined, vehicle 12 days): 48 days
- overall survival ([2]; one cycle, daily for 5 days, three PDXs combined, vehicle 35 days): 71 days
- reduction of leukemia burden vs vincristine/dexamethasone ([2]; peripheral blood flow cytometry, most animals): longer sustained reduction in human BPDCN leukemia burden
- residual CD45+CD123+ leukemia at 200 days ([2]; peripheral blood, spleen, and bone marrow): detectable leukemia cells in spleen and bone marrow
- effect of a second cycle ([2]; second cycle at progression): effective
- response of PDX cohorts ([2]; three cohorts, 100 ug/kg/day intraperitoneally x5 days): prolonged progression-free and overall survival
- time to progression of peripheral blood leukemia burden ([2]; four-arm study): prolonged the time to progression of peripheral blood leukemia burden
- anti-tumor efficacy [7]: in vivo anti-tumor efficacy
- ADP-ribosylation in lysates ([3]; parental cells): caused ADP-ribosylation of a single protein
- ADP-ribosylation in lysates ([3]; tagraxofusp-resistant cells): unable to catalyze ADP-ribosylation of any proteins in the lysate
- cytotoxicity [8]: potently and selectively cytotoxic
- SL-401-dependent ADP ribosylation activity [9]: diminished in the SL-401 resistant cells
- safety [10]: Safety was shown at therapeutically active doses
- SL-401-dependent ADP ribosylation activity [11]: diminished in the SL-401 resistant cells

B2: Tagraxofusp-APC: APC-tagged, fluorescently labeled tagraxofusp used for confocal microscopy (conjugate)
chain: MGADDVVDSSKSFVMENFSSYHGTKPGYVDSIQKGIQKPKSGTQGNYDDDWKGFYSTDNKYDAAGYSVDNENPLSGKAGGVVKVTYPGLTKVLALKVDNAETIKKELGLSLTEPLMEQVGTEEFIKRFGDGASRVVLSLPFAEGSSSVEYINNWEQAKALSVELEINFETRGKRGQDAMYEYMAQACAGNRVRRSVGSSLSCINLDWDVIRDKTKTKIESLKEHGPIKNKVISESPNKTVSEEKAKQYLEEFHQTALEHPELSELKTVTGTNPVFAGANYAAWAVNVAQVIDSETADNLEKTTAALSILPGIGSVMGIADGAVHHNTEEIVAQSIALSSLMVAQAIPLVGELVDIGFAAYNFVESIINLFQVVHNSYNRPAYSPGHKTRPHMAPMTQTTSLKTSWVNCSNMIDEIITHLKQPPLPLLDFNNLNGEDQDILMENNLRRPNLEAFNRAVKSLQNASAIESILKNLLPCLPLATAAPTRHPIHIKDGDWNEFRRKLTFYLKTLENAQAQQTTLSLAW
- drug internalization [12]: internalized equally in resistant and parental cells
